Data published in patent US20230226096A1 (Orna Therapeutics, Inc., priority 2020, published 2023).

B1: Enterovirus AN12 (nucleic acid, listed as Enterovirus sp.)
DNA: TACCGCTGCACCAGTGAGCTGGTACGCTAGTACCTTCGCACGGAGTAGATGGCATCCCCCACCCCGTAACTTAGAAGCAAAGTACACATCTGGCCAATAGTGGCGCTGCATCCAGCCGCGCAACGGTCAAGCACTTCTGTTTCCCCGGTCCGCAAGGGTCGTTATCCGCCCAGTCCACTACGGAAAGCCTACTAACCATTGAAGCTATCGAGAGGTTGCGCTCGGCCACGACCCCGGTGGTAGCTCTGAGTGATGGGGCTCGCAAACACCCCCGTGGTAACACGGATGCTTGCCCGCGCGTGCACTCGGGTTCAGCCTATTGGTTGTTCACCTCAACATAGTGTAAATGGCCAAGAGCCTACTGTGCTGGATTGGTTTTCCTCCGGAGCCGTGAATGCTGCTAATCCCAACCTCCGAGCGTGTGCGCACAATCCAGTGTTGCTACGTCGTAACGCGTAAGTTGGAGGCGGAACAGACTACTTTCGGTACTCCGTGTTTCTTTTGTTTTATTTTGAATTTTATGGTGACAATTGCTGAGATTTGCGAATTAGCGACTCTACCGCTGAACATTGCCCTGTACTACCTAATCGCATTTCACAAAACCTCAGAGATACCAAGCTCTTACATTGATCTGCTTGTTTTCCTGAATCTCAAATATAAATTGGAACAAGCAAA
B2: Dolphin morbillivirus (nucleic acid, listed as Morbillivirus sp.)
DNA: ACCAGACAAAGCTGGCTAGGGGTAGAATAACAGATAATGATAAATTATCATACTTAGGATTAATGATCCTATCAATTGGCACAGGATTTGGATAAAGGTTCACAGTC
modifications: chemistry not fully specified; the letters are possibly those of the target site
B3: Equine rhinitis A virus (nucleic acid)
DNA: AAGGGTTACTGCTCGTAATGAGAGCACATGACATTTTGCCAAGATTTCCTGGCAATTGTCACGGGAGAGAGGAGCCCGTTCTCGGGCACTTTTCTCTCAAACAATGTTGGCGCGCCTCGGCGCGCCCCCCCTTTTTCAGCCCCCTGTCATTGACTGGTCGAAGGCGCTCGCAATAAGACTGGTCGTTGCTTGGCTTTTCTATTGTTTCAGGCTTTAGCGCGCCCTTGCGCGGCGGGCCGTCAAGCCCGTGTGCTGTACAGCACCAGGTAACCGGACAGCGGCTTGCTGGATTTTCCCGGTGCCATTGCTCTGGATGGTGTCACCAAGCTGGCAGATGCGGAGTGAACCTTACGAAGCGACACACCTGTGGTAGCGCTGCCCAGAAGGGAGCGGAGCTCCCCCGCCGCGAGGCGGTCCTCTCTGGCCAAAAGCCCAGCGTTAATAGCGCCTTCTGGGATGCAGGAACCCCACCTGCCAGGTGTGAAGTGGACTAAGTGGATCTCCAATTTGGCCTGTTCTGAACTACACCATCTACTGCTGTGAAGAATGTCCTGAAGGCAAGCTGGTTACAGCCCTGATCAGGAGCCCCGCTCGTGACTCTCGATCGACGCGGGGTCAAAAACTGTCTAAGCAGCAGCAGAAACGCGGGAGCGTTTCTTTTTCCTCATTTGTTTC
modifications: Equine rhinitis A virus
B4: Enterovirus sp. isolate CPML (nucleic acid, listed as Enterovirus sp.)
DNA: ACTCTGGTATCACGGTACCTTTGCACGCCTATTTTATACCCCTTCCCCATCGTAACTTAGAAGCAACAAACAAACTGCCCAATAGCAGCACAACACCCAGTTGTGTTAGGGGCAAGCACTTCTGTTTCCCCGGAAGGGTCTGACGGTATGCTGTACCCACGGCAGAAGTATGACCTACCGTTAACCGGCCATGTACTTCGAGAAGCCTAGTACCATTATGAAGGTTGATTGATGTTACGCTCCCCAGCAACCCCAGCTGGTAGTTCTGGTCGATGAGTCTCGGCATTCCCCACGGGCGACCGTGGCCGAGGCTGCGTTGGCGGCCAGCCTACACCATACGGTGTAGGACGTCAAGATACTGACATGGTGTGAAGAGCCTATTGAGCTACGTGGTAGTCCTCCGGCCCCTGAATGCGGCTAATCCTAACTCCGGAGCATCCGCCAGTAAGCCCACTGGAAGGGTGTCGTAATGCGAAAGTCTGGAGCGGAACCGACTACTTTGGGTGTCCGTGTTTCCTGTTTTACTTATTGTTTGGCTGCTTATGGTGACAACTTATAGTTATCATCATAAGCTACTTGGTCTTGCCAACCGGAGAATTATTTGGTTATTTGTTGGTTTCATAAACCTACAGTCGTATTTTCCTGTCTTATTAATTGTTCTCAAAATTAACAACA
B5: Equine rhinitis B virus 1 (nucleic acid)
DNA: CGACAGGCACAGGTCGCTCCGAGTTCTAGTAGTGTGGGAACTTGTTACTACTGATGAAACGAGGTAGTGACACTCAGTACCTGCGAACGAGGTCGGGGCCCTCCCTTCTTCCTTCACCCAACTTTCACTTTTCGTTCCACTTTAGCAGGGGTCTTCTTTCTATCCCCCTGGCGGCATTGGAACTAGCCGTCGCGTCTTAACGCGCAGCCCTGAAGGCCCCACACCTTGTGGATCTTGCCGTGGGTATGTTTCTGGCATGTGTTTCTCAAGCCTGCAACCGAAGCCGAACAGCCACATGAACAGTTTGAGCGTGGTAGCGCTGTGTGAGTTGGCGGTGGATCCCCCTCGTGGTAACACGAGCCCCCGTGGCCAAAAGCCCAGTGTTTACAGCACCTCTCACATCCAGGACGACCCCATCCTGGCGCTCACTCTTAGTAGTATGGCTTAGTACGCATTAGGTGGTAAGCCGAGCTCTCCCTCGGCCTTGTTCTGAATGCACACATGTCTAGGGGCTAAGGATGTCCTACAGGTACCCGCACGTAACCTTCAGAGAGTGCGGATCTGAGTAGGAGACCGTGGTGCACTGCTTTACAGATGCAGCCCGGTTTAAAAAGCGTCTATGCCCCTACAGGGTAGCGGTGGGCCGCGCCCTTTCCTTTTAAAACTACTTGTTCT
B6: Goat torovirus (nucleic acid, listed as Torovirus sp.)
DNA: GTACTTACAAGCGGGTTAAACCGCCCTCCGGAACGGTTACAACCCCCTCCCGAACGTGCGCTTGACGTGACTGGTTCTCAGTCTGGCTTTCTGAGAAATACTCCAGGGTTGTATCCCACCATCTTGACCTCTGGTCATTTTGGTAACACCATAACCAAACAAACTCTACACACCTAACCCACCTCCAGCTTGCTGCAGGCCTTTTGGACTAAACGGGTTTAGGTGTTTTGTGACCAACTCGTCTACCCACCTCCAGTTTTACTGCAGGCCTTTTTGGACTAAACGGCTTTAGACTTTTGTGGTTAGTTTTTAACTACCCACTGTTTAGCCGCCAACCTGATTTTCATTGTTGTAAAATTTTGTGTTTATACACTATTTTCATACGGTTGGCAGTTTGTTTGGTTGTTTGCACAGTTTTTGTTGATACCAATTTTTACTGTGCTTTTAGTGTATTCTGCTAAGGCTGTATTTTACATACTTAGTTTGGTTGAAGCAATTTTTACAACATTTATATTGTTTTTGATTTCTAAGGTAAAGAGTCTTAGGAAACACCATAGACGCCATTCTTGTGGTGTCTAGTTCCAACTAATCTGGCAAACAAGTACCAAGTCATTGACTCACTTTGGAGTGAGACTTACGAGTACCAATTTGCCTATTTCGGACATCCATATAAAG
B7: Dianke virus (nucleic acid)
DNA: TGTTTTCAACCATAATACTACTACTACAAGTATAAAACCCCGTCCGTCTGTCGGAGACGCTAAACTCTGACCACCAATCTAGCCACATCAGTTGCTTAAAGAACCTCTTGAGACACTCTCCCACTTAACATCTTTTAGGAATCTTCGATGCTACAACAACTTGGCTAGTGAACAATAAATCCGTACAATTCACAGTTGTAAGAGGCCATAGGTCCAGACTTTGAAAGGTTTGTTTCTATTGTTACAAATACTTAGATTAACAGAGGCTATTTAATAGTGCTCATCACGTTAACAGAGTAACCTTGTGCAATAGTATGAGCTTGTTGTAAAACGTCTTGATACGACACC
B8: Equine arteritis virus (nucleic acid)
DNA: GCTCGAAGTGTGTATGGTGCCATATACGGCTCACCACCATATACACTGCAAGAATTACTATTCTTGTGGGCCCCTCTCGGTAAATCCTAGAGGGCTTTCCTCTCGTTATTGCGAGATTCGTCGTTAGATAACGGCAAGTTCCCTTTCTTACTATCCTATTTTCATCTTGTGGCTTGACGGGTCACTGCCATCGTCGTCGATCTCTATCAACTACCCTTGCGACT
B9: Megirivirus A LY (nucleic acid)
DNA: TTCGGGACACTGGATGGGCGACTTGGTGGGGCTGCCACTCTATCTTGACCTTTCGTTACTGACTTTCGGATCTCTGACTCCTCCTTGTCTCTTGCGTTTGGTCCACGGACGGACTAATTGGAATGTTTACTGGCTAAGCCTCGTTCTGAAATACCCTAGCCAATGGGTTGTAGTAGGATCCTGGTGTTTCCATTAAACCTCTTCCGACCATAGTAGCTAGAGTTATGGCTGTGTAGGATGTGGGTAAGACCGCTTTTTGCGTATCTCCCACAAGACACCGGATTATGGATGTGTCCGCTGGATAAGGCTCGAAACCTCCCAACTGAAGGTGGTGCTGAAATATTGCAAGCCTAGGTTGTGTAGAGGCAAGTAGATGCCTGCCGCGACATTCGTCTTCCGCCCTTTTGGGTTAGTAGTGTACCTACATGGACGTGGGGCTGGGAATCCCCACCTTGCATAACACTGGTTGATAGACCTGCGGCTGGTCAAGTTACTATGGTATAACCAGTTGAAATGGCT
B10: Grapevine associated narnavirus-1 (nucleic acid, listed as Narnavirus sp.)
DNA: GCCCGGGGGGTGCAGTCCTGTGAAAGGGTCTGCACCATACTATATATGTATATGATTACATCCCAAAAGGCGACTTCGTTCAGGTTTTAAATCTGACGTAGGTCCAGTAAATAAGCATGTCAAAACATGTAAGTTTATCCTGTAATCTACTCTCATAAGATGAGATAAGATGATATTGCAGTTCCCATGTAAATAAATCCATTATGAATTCATTCATATAAGGTAGAAGTGGTAACTATGGTTGAAACATTAATATAAAACGGTCATTTTGCATGAACGTCATTAAGGAACTGGCATACCAATGTCTATTTAGTGACTATGATATTTAGAGTATCCCTTATATTAATTAACAATTATTCCTTTTAGCATATCATCCGACAACAAATTTTAAAAGAAGAAATATTACTCATTAAAA
B11: Guereza hepacivirus (nucleic acid, listed as Hepacivirus sp.)
DNA: CACTCAATACTACACTCCGCATTTGGGGAGAAGCGCTGGCGTTCGCGGAACCGCGTTAACCATACGCGTAGTACGAGTGCGACAGACCCCGGTGCTACTGGTGGTAGCGAGACACGAGCCGAAGTCTGTGGGGGGAACTCCACTTAGAGGGCATGCCCGGGCGTAGGCTTCTGAGTTGGGATGGGCCCCAACTTGGCCCCTGAGTGGGGGGGTGTTACGACCTGATAGGGTGCGGGCTGGCGCCTACCACTTTCCAGTCGTACATGAGTC

tested on: HEK293 cells; format: cell-based, human; settings: luminescence from secreted Gluc in supernatant 24 hours after transfection of HEK293 cells; circular RNA encoding Gluc with the named IRES (UTR truncated to 675 nt)

How did the Expression turn out when B1 was run?
Its Expression is 3.87E+06.

How did the Expression turn out when B2 was run?
The Expression was 1.22E+05.

B3 was tested. Which Expression did it give?
The Expression was 3.73E+05.

How did the Expression turn out when B4 was run?
The Expression was 6.83E+07.

Which Expression does the source give for B5 here?
The Expression was 1.01E+05.

Which Expression does the source give for B6 here?
The Expression was 1.19E+05.

B7 was tested. Which Expression did it give?
The Expression was 1.35E+05.

Which Expression does the source give for B8 here?
Its Expression is 1.89E+05.

With B9 as the molecule, how does the Expression read?
The Expression was 1.80E+06.

Which Expression does the source give for B10 here?
Its Expression is 1.30E+05.

Which Expression does the source give for B11 here?
Its Expression is 1.38E+05.
